8 molecules from patent US20230051954A1 (published 2023) can be followed below.

The labels stand for the following.
T1: cynomolgus monkey (Macaca fascicularis) transferrin receptor 1 (cynomolgus monkey (Macaca fascicularis), UniProt Q5RDH6 89-760 (Pongo abelii entry), limits assumed)
T1 construct: Recombinant protein used in ELISA and SPR; also called cTfR1; cyno TfR1
T1 chain: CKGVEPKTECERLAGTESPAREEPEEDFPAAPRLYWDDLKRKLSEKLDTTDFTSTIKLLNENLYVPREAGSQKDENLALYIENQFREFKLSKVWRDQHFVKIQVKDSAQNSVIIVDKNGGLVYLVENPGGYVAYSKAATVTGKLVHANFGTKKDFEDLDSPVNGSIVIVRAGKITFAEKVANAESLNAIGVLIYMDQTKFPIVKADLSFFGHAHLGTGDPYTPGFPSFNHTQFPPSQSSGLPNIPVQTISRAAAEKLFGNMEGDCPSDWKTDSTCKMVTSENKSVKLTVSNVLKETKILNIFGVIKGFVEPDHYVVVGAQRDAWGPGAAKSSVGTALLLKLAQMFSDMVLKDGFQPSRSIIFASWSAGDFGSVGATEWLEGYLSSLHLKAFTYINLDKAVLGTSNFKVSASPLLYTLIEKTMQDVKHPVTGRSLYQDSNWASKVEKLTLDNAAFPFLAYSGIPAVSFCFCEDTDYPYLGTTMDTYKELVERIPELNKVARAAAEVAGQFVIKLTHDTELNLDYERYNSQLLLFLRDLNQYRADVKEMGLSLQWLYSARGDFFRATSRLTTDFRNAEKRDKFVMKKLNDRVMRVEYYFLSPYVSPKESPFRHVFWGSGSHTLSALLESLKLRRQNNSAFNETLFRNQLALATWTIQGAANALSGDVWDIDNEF

B1: 3M12 (VH3/Vk2) Fab conjugated to DMPK-targeting oligonucleotide ASO300 (Fab, V domains shown)
VH: QVQLQESGPGLVKPSQTLSLTCSVTGYSITSGYYWNWIRQPPGKGLEWMGYITFDGANNYNPSLKNRVSISRDTSKNQFSLKLSSVTAEDTATYYCTRSSYDYDVLDYWGQGTTVTVSS
VL: DIQMTQSPSSLSASVGDRVTITCRASQDISNFLNWYQQKPGQPVKLLIYYTSRLHSGVPSRFSGSGSGTDFTLTISSLQPEDFATYFCQQGHTLPYTFGQGTKLEIKR
notes: Fab covalently conjugated to antisense oligonucleotide ASO300 (linker of Formula (C)); also called 3M12 (VH3/Vk2) conjugate; DMPK oligo conjugate
B2: 3M12 (VH4/Vk3) Fab conjugated to DMPK-targeting oligonucleotide ASO300 (Fab, V domains shown)
VH: B1 VH with S23T, M49I
VL: B1 VL with F87Y
notes: Fab covalently conjugated to ASO300; also called 3M12 (VH4/Vk3) conjugate; DMPK oligo conjugate
B3: 3A4 (VH3-N54S/Vk4) Fab conjugated to DMPK-targeting oligonucleotide ASO300 (Fab, V domains shown)
VH: EVQLVQSGSELKKPGASVKVSCTASGFNIKDDYMYWVRQPPGKGLEWIGWIDPESGDTEYASKFQDRVTVTADTSTNTAYMELSSLRSEDTAVYYCTLWLRRGLDYWGQGTLVTVSS
VL: DIVMTQSPLSLPVTPGEPASISCRSSKSLLHSNGYTYLFWFQQRPGQSPRLLIYRMSNLASGVPDRFSGSGSGTDFTLKISRVEAEDVGVYYCMQHLEYPFTFGGGTKVEIKR
notes: Fab covalently conjugated to ASO300; also called 3A4 (VH3-N54S/Vk4) conjugate
B4: 3A4 (VH3-N54T/Vk4) Fab conjugated to DMPK-targeting oligonucleotide ASO300 (Fab, V domains shown)
VH: B3 VH with S55T
VL: B3 VL
notes: Fab covalently conjugated to ASO300; also called 3A4 (VH3-N54T/Vk4) conjugate
B5: 3A4 (VH3/Vk4) Fab conjugated to DMPK-targeting oligonucleotide ASO300 (Fab, V domains shown)
VH: B3 VH with S55N
VL: B3 VL
notes: Fab covalently conjugated to ASO300; also called 3A4 (VH3/Vk4) conjugate
B6: 5H12 (VH5-C33D/Vk4) Fab conjugated to DMPK-targeting oligonucleotide ASO300 (Fab, V domains shown)
VH: QVQLVQSGAEVKKPGASVKVSCKASGYSFTDYDINWVRQAPGQGLEWMGWIYPGSGNTRYSERFKGRVTITRDTSASTAYMELSSLRSEDTAVYYCAREDYYPYHGMDYWGQGTLVTVSS
VL: DIVMTQSPDSLAVSLGERATINCRASESVDGYDNSFMHWYQQKPGQPPKLLIFRASNLESGVPDRFSGSGSGTDFTLTISSLQAEDVAVYYCQQSSEDPWTFGQGTKLEIKR
notes: Fab covalently conjugated to ASO300; also called 5H12 (VH5-C33D/Vk4) conjugate
B7: 5H12 (VH5-C33Y/Vk4) Fab conjugated to DMPK-targeting oligonucleotide ASO300 (Fab, V domains shown)
VH: B6 VH with D33Y
VL: B6 VL
notes: Fab covalently conjugated to ASO300
B8: 5H12 (VH5-C33Y/Vk3) Fab conjugated to DMPK-targeting oligonucleotide ASO300 (Fab, V domains shown)
VH: B6 VH with D33Y
VL: B6 VL with M4L, G72R
notes: Fab covalently conjugated to ASO300; also called 5H12 (VH5-C33Y/Vk3) conjugate

Residue numbers refer to the chain shown, from its start. Names and notes keep the numbering of the source.

The first assay deals with T1, cynomolgus monkey (Macaca fascicularis) …. As to the kind of experiment: ELISA, DMPK oligo (ASO300) conjugate binding to cyno TfR1. Background: An ELISA detects its analyte on a solid surface through an enzyme-linked reagent.
The EC50 is the concentration at which the effect is half-maximal. The molecule B1 displayed an EC50 of 2.26 nM.
On the same count and under the same terms, with B2 the figure was 1.85 nM.
The same measure, in the same setting: the result for B3 reads 4.1 nM; that for B4, 5.12 nM.
On the same count and under the same terms, with B5 the figure was 7.59 nM; with B6, 10.2 nM; with B7, 13.9 nM.

The target of a further assay is T2, recombinant human transferrin receptor 1 (human, UniProt P02786 89-760).
T2 construct: Recombinant protein used in ELISA and SPR; also called hTfR1; huTfR1
T2 sequence (P02786 89-760 limits assumed): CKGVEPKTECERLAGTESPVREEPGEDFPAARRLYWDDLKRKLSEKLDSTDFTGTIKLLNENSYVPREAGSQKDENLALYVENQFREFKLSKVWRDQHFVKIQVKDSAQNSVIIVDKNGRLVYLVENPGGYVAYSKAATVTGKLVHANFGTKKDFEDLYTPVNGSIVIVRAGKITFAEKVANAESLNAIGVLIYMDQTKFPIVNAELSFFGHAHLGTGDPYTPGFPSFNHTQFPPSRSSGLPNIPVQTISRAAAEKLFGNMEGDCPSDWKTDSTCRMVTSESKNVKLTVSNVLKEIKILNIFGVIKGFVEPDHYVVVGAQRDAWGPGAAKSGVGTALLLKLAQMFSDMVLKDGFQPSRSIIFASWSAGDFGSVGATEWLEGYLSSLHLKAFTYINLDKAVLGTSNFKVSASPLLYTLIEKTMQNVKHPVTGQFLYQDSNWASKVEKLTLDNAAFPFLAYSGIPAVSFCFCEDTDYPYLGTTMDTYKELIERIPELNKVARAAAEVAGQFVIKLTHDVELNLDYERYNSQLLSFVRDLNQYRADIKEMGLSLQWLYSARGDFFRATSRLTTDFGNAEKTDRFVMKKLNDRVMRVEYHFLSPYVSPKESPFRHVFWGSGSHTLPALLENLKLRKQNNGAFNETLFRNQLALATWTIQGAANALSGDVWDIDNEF
Description: ELISA, DMPK oligo (ASO300) conjugate binding to hTfR1.
On to B1, for which the EC50 worked out at 1.14 nM.
Same read-out and setting: the result for B2 reads 1.18 nM; that for B3, 2.71 nM; that for B5, 2.84 nM.
Same read-out and setting: the result for B6 reads 110 nM.
Take B7: the EC50 amounted to 13.9 nM.

The next assay addresses T2, recombinant human transferrin receptor 1. Description: ELISA, plate-coated human TfR1, Fab-ASO300 conjugate; printed as 'Conjugate binding affinity ELISA'.
B1: the EC50 is 2.2 nM.
Same read-out and setting: the result for B2 reads 1.7 nM.
Still for that read-out and setting: the result for B3 reads 2.9 nM; that for B4, 2.8 nM.
On the same count and under the same terms, with B5 the figure was 2.8 nM; with B6, 110 nM.
B7: the EC50 was found to be 23.7 nM.
Same read-out and setting: the result for B8 reads 33.4 nM.

In a further assay the target is T1, cynomolgus monkey (Macaca fascicularis) …. Description: ELISA, plate-coated cyno TfR1, Fab-ASO300 conjugate; printed as 'Conjugate binding affinity ELISA'.
Consider B1, for which the midpoint of the response, the EC50, lay at 2.9 nM.
Still for that read-out and setting: the result for B2 reads 2.1 nM; that for B3, 7.8 nM.
Regarding B4, the EC50 is 4.7 nM.
Regarding B5, the EC50 is 7.6 nM.
On the same count and under the same terms, with B6 the figure was 10.2 nM.
On to B8, for which the EC50 turned out to be 2.3 nM.
